According to PMC5789848 (2018):

Experiments:
[1] = target: T1, GST-Tax_(CACA) (HTLV-1 Tax with C23 and C29 changed to alanine, N-terminal GST fusion) (HTLV-1, UniProt P03409 1-353, C23A | C29A); assay: BLI
[2] = target: T1, GST-Tax_(CACA) (HTLV-1 Tax with C23 and …); assay: BLI; remark: listed apart in the source

B1: UPF1-HD_(DE636AA), histidine-tagged (domain or fragment)
chain: RYEDAYQYQNIFGPLVKLEADYDKKLKESQTQDNITVRWDLGLNKKRIAYFTLPKTDSDMRLMQGDEICLRYKGDLAPLWKGIGHVIKVPDNYGDEIAIELRSSVGAPVEVTHNFQVDFVWKSTSFDRMQSALKTFAVDETSVSGYIYHKLLGHEVEDVIIKCQLPKRFTAQGLPDLNHSQVYAVKTVLQRPLSLIQGPPGTGKTVTSATIVYHLARQGNGPVLVCAPSNIAVDQLTEKIHQTGLKVVRLCAKSREAIDSPVSFLALHNQIRNMDSMPELQKLQQLKDETGELSSADEKRYRALKRTAERELLMNADVICCTCVGAGDPRLAKMQFRSILIAASTQATEPECMVPVVLGAKQLILVGDHCQLGPVVMCKKAAKAGLSQSLFERLVVLGIRPIRLQVQYRMHPALSAFPSNIFYEGSLQNGVTAADRVKKGFDFQWPQPDKPMFFYVTQGQEEIASSGTSYLNRTEAANVEKITTKLLKAGAKPDQIGIITPYEGQRSYLVQYMQFSGSLHTKLYQEVEIASVDAFQGREKDFIILSCVRANEHQGIGFLNDPRRLNVALTRARYGVIIVGNPKALSKQPLWNHLLNYYKEQKVLVEGPLNNLRESLMQFS
koff [1]: 0.000283 s⁻¹
Kd [2]: 31.4 nM

B2: UPF1 helicase core domain (UPF1-HD; aa 295-914), C-terminal hexahistidine (domain or fragment)
chain: RYEDAYQYQNIFGPLVKLEADYDKKLKESQTQDNITVRWDLGLNKKRIAYFTLPKTDSDMRLMQGDEICLRYKGDLAPLWKGIGHVIKVPDNYGDEIAIELRSSVGAPVEVTHNFQVDFVWKSTSFDRMQSALKTFAVDETSVSGYIYHKLLGHEVEDVIIKCQLPKRFTAQGLPDLNHSQVYAVKTVLQRPLSLIQGPPGTGKTVTSATIVYHLARQGNGPVLVCAPSNIAVDQLTEKIHQTGLKVVRLCAKSREAIDSPVSFLALHNQIRNMDSMPELQKLQQLKDETGELSSADEKRYRALKRTAERELLMNADVICCTCVGAGDPRLAKMQFRSILIDESTQATEPECMVPVVLGAKQLILVGDHCQLGPVVMCKKAAKAGLSQSLFERLVVLGIRPIRLQVQYRMHPALSAFPSNIFYEGSLQNGVTAADRVKKGFDFQWPQPDKPMFFYVTQGQEEIASSGTSYLNRTEAANVEKITTKLLKAGAKPDQIGIITPYEGQRSYLVQYMQFSGSLHTKLYQEVEIASVDAFQGREKDFIILSCVRANEHQGIGFLNDPRRLNVALTRARYGVIIVGNPKALSKQPLWNHLLNYYKEQKVLVEGPLNNLRESLMQFS
koff [1]: 0.00038 s⁻¹
Kd [2]: 16.6 nM

B3: UPF1-HD_(R843C), histidine-tagged (domain or fragment)
chain: RYEDAYQYQNIFGPLVKLEADYDKKLKESQTQDNITVRWDLGLNKKRIAYFTLPKTDSDMRLMQGDEICLRYKGDLAPLWKGIGHVIKVPDNYGDEIAIELRSSVGAPVEVTHNFQVDFVWKSTSFDRMQSALKTFAVDETSVSGYIYHKLLGHEVEDVIIKCQLPKRFTAQGLPDLNHSQVYAVKTVLQRPLSLIQGPPGTGKTVTSATIVYHLARQGNGPVLVCAPSNIAVDQLTEKIHQTGLKVVRLCAKSREAIDSPVSFLALHNQIRNMDSMPELQKLQQLKDETGELSSADEKRYRALKRTAERELLMNADVICCTCVGAGDPRLAKMQFRSILIDESTQATEPECMVPVVLGAKQLILVGDHCQLGPVVMCKKAAKAGLSQSLFERLVVLGIRPIRLQVQYRMHPALSAFPSNIFYEGSLQNGVTAADRVKKGFDFQWPQPDKPMFFYVTQGQEEIASSGTSYLNRTEAANVEKITTKLLKAGAKPDQIGIITPYEGQRSYLVQYMQFSGSLHTKLYQEVEIASVDAFQGREKDFIILSCVCANEHQGIGFLNDPRRLNVALTRARYGVIIVGNPKALSKQPLWNHLLNYYKEQKVLVEGPLNNLRESLMQFS
koff [1]: 0.000437 s⁻¹
Kd [2]: 53.8 nM

B4: UPF1-HD_(R843S), histidine-tagged (domain or fragment)
chain: RYEDAYQYQNIFGPLVKLEADYDKKLKESQTQDNITVRWDLGLNKKRIAYFTLPKTDSDMRLMQGDEICLRYKGDLAPLWKGIGHVIKVPDNYGDEIAIELRSSVGAPVEVTHNFQVDFVWKSTSFDRMQSALKTFAVDETSVSGYIYHKLLGHEVEDVIIKCQLPKRFTAQGLPDLNHSQVYAVKTVLQRPLSLIQGPPGTGKTVTSATIVYHLARQGNGPVLVCAPSNIAVDQLTEKIHQTGLKVVRLCAKSREAIDSPVSFLALHNQIRNMDSMPELQKLQQLKDETGELSSADEKRYRALKRTAERELLMNADVICCTCVGAGDPRLAKMQFRSILIDESTQATEPECMVPVVLGAKQLILVGDHCQLGPVVMCKKAAKAGLSQSLFERLVVLGIRPIRLQVQYRMHPALSAFPSNIFYEGSLQNGVTAADRVKKGFDFQWPQPDKPMFFYVTQGQEEIASSGTSYLNRTEAANVEKITTKLLKAGAKPDQIGIITPYEGQRSYLVQYMQFSGSLHTKLYQEVEIASVDAFQGREKDFIILSCVSANEHQGIGFLNDPRRLNVALTRARYGVIIVGNPKALSKQPLWNHLLNYYKEQKVLVEGPLNNLRESLMQFS
koff [1]: 0.000877 s⁻¹
Kd [2]: 66.6 nM
